According to the supplement of paper PMC10201428:
± gives the standard deviation of the averaged measurements.

Columns and labels:
[1] = tested on: VchCAST RNA-guided transposition machinery (E. coli BL21(DE3) host, lacZ target); experiment: relative integration efficiency (T-RL orientation) vs wild-type transposon end (log2 (normalized fold change)); transposon end mutated: right end (5 bp flank + 75 bp right end); higher = more efficient transposition
Method in brief: (§1)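 Each barcoded pool, 1549 left-end or 1849 right-end transposon variants in a pUC57 mini-transposon donor, went into E. coli BL21(DE3) with a T7-driven effector plasmid (CRISPR array, tniQ-cas8-cas7-cas6, tnsA-tnsB-tnsC). Plates contained 0.1 mM IPTG and were held at 37°C for 18 h. Input plasmids and genomic integration junctions were PCR-amplified and read by Illumina sequencing, with two biological output replicates and four reference barcodes. Relative integration efficiency is the fold change of output over input barcode abundance, normalised to the reference barcodes and log-transformed.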

[2] = tested on: VchCAST RNA-guided transposition machinery (E. coli BL21(DE3) host, lacZ target); experiment: relative integration efficiency (T-LR orientation) vs wild-type transposon end (log2 (normalized fold change)); transposon end mutated: right end (5 bp flank + 75 bp right end); higher = more efficient transposition
Method in brief: as §1

| Sequence | relative integration efficiency (log2) [1] | relative integration efficiency (log2) [2] |
| --- | --- | --- |
| ACATTTGTTGATACAACCATAAAATGATAATTACACCCATAAATTGATAATTATCACACCCATAAATTGATATTGCCTCTGGCTAGCATTATACCTAGGACTGAGCTAGCTGTCAACGCACCGACAC | -2.99 ± 0.27 | 1.91 ± 0.064 |
| ACATTTGTTGATACAACCATAAAATGATAATTACACCCATAAATTGATAATTATCACACCCATAAATTGATATTGCCTCTGGCTAGCATTGTACCTAGGACTGAGCTAGCCATAAACGCACCGACAC | -0.0442 ± 0.11 | 0.293 ± 0.3 |
| ACATTTGTTGATACAACCATAAAATGATAATTACACCCATAAATTGATAATTATCACACCCATAAATTGATATTGCCTCTGTACCGTTCGTATAATGTATGCTATACCAAGTTATTCGCACCGACAC | -0.351 ± 0.19 | -0.0326 ± 0.059 |
| ACATTTGTTGATACAACCATAAAATGATAATTACACCCATAAATTGATAATTATCACACCCATAAATTGATATTGCCTCTGTACCGTTCGTATACGATACATTATACGAAGTTATTCGCACCGACAC | -1.24 ± 0.29 | 1.66 ± 0.14 |
| ACATTTGTTGATACAACCATAAAATGATAATTACACCCATAAATTGATAATTATCACACCCATAAATTGATATTGCCTCTGTACGATCCAGTGATCTCCAAGACGCTGCAAGAGTCCGCACCGACAC | 0.0556 ± 0.23 | -0.117 ± 0.38 |
| ACATTTGTTGATACAACCATAAAATGATAATTACACCCATAAATTGATAATTATCACACCCATAAATTGATATTGCCTCTGTTGACAGCTAGCTCAGTCCTAGGTATAATGCTAGCCGCACCGACAC | -0.0954 ± 0.038 | 0.147 ± 0.2 |
| ACATTTGTTGATACAACCATAAAATGATAATTACACCCATAAATTGATAATTATCACACCCATAAATTGATATTGCCTCTGTTGACGGCTAGCTCAGTCCTAGGTATAGTGCTAGCCGCACCGACAC | -0.43 ± 0.065 | -0.517 ± 0.3 |
| ACATTTGTTGATACAACCATAAAATGATAATTACACCCATAAATTGATAATTATCACACCCATAAATTGATATTGCCTCTGTTGGCGCCCGGCCCTCAGGCCCTGCAGTGAGTTCCAGCACCGACAC | 0.121 ± 0.15 | 0.0708 ± 0.019 |
| ACATTTGTTGATACAACCATAAAATGATAATTACACCCATAAATTGATAATTATCACACCCATAAATTGATATTGCCTCTGTTTATGGCTAGCTCAGTCCTAGGTACAATGCTAGCCGCACCGACAC | -0.0948 ± 0.31 | -0.0571 ± 0.23 |
| ACATTTGTTGATACAACCATAAAATGATAATTACACCCATAAATTGATAATTATCACACCCATAAATTGATATTGCCTCTTAACACCCGTATTACTTCATAATCGTTTGTAATTCAAGCACCGACAC | -0.169 ± 0.26 | 1.41 ± 0.25 |
| ACATTTGTTGATACAACCATAAAATGATAATTACACCCATAAATTGATAATTATCACACCCATAAATTGATATTGCCTCTTCATGCAGATTTGAACAGTAAGTTTACGACATTTTCAGCACCGACAC | -0.604 ± 0.37 | 1.32 ± 0.14 |
| ACATTTGTTGATACAACCATAAAATGATAATTACACCCATAAATTGATAATTATCACACCCATAAATTGATATTGCCTCTTCATGCAGATTTGAACAGTTTCAAATGCTGATTTTCAGCACCGACAC | 0.29 ± 0.31 | 0.372 ± 0.19 |
| ACATTTGTTGATACAACCATAAAATGATAATTACACCCATAAATTGATAATTATCACACCCATAAATTGATATTGCCTCTTCATGGTCTAAACTTCAGTAAGTTTACGACATTTTCAGCACCGACAC | -0.93 ± 0.4 | 1.44 ± 0.19 |
| ACATTTGTTGATACAACCATAAAATGATAATTACACCCATAAATTGATAATTATCACACCCATAAATTGATATTGCCTCTTCATGGTCTAAACTTCAGTCCTGGGCATCAATTTTCAGCACCGACAC | 0.135 ± 0.16 | -0.163 ± 0.029 |
| ACATTTGTTGATACAACCATAAAATGATAATTACACCCATAAATTGATAATTATCACACCCATAAATTGATATTGCCTCTTCATGGTCTAAACTTCAGTTTCAAATGCTGATTTTCAGCACCGACAC | 0.164 ± 0.26 | 0.262 ± 0.23 |
| ACATTTGTTGATACAACCATAAAATGATAATTACACCCATAAATTGATAATTATCACACCCATAAATTGATATTGCCTCTTCATGTGAGCCCAGGCAGTAAGTTTACGACATTTTCAGCACCGACAC | -1.91 ± 0.27 | 2.37 ± 0.34 |
| ACATTTGTTGATACAACCATAAAATGATAATTACACCCATAAATTGATAATTATCACACCCATAAATTGATATTGCCTCTTCATGTGAGCCCAGGCAGTCCTGGGCATCAATTTTCAGCACCGACAC | -0.116 ± 0.3 | 0.0484 ± 0.15 |
| ACATTTGTTGATACAACCATAAAATGATAATTACACCCATAAATTGATAATTATCACACCCATAAATTGATATTGCCTCTTCTTTGCTCACGCATCTAGTCGGTCCACGTTTGGTTCGCACCGACAC | -0.231 ± 0.37 | -0.129 ± 0.28 |
| ACATTTGTTGATACAACCATAAAATGATAATTACACCCATAAATTGATAATTATCACACCCATAAATTGATATTGCCTCTTTATGCAGGACGACGTACGCGTTCCATATAAACCTGTGCACCGACAC | 0.021 ± 0.25 | -0.104 ± 0.19 |
| ACATTTGTTGATACAACCATAAAATGATAATTACACCCATAAATTGATAATTATCACACCCATAAATTGATATTGCCTCTTTGTGAGCGGATAACAAGATCATAGTCAGACCAACATGCACCGACAC | -0.26 ± 0.07 | -0.434 ± 0.17 |
| ACATTTGTTGATACAACCATAAAATGATAATTACACCCATAAATTGATAATTATCACACCCATAAATTGATATTGCCTGAGATCATAGTCAGACCAACATTGCTACGACCCGTATTCGCACCGACAC | 0.0616 ± 0.0024 | 0.172 ± 0.11 |
| ACATTTGTTGATACAACCATAAAATGATAATTACACCCATAAATTGATAATTATCACACCCATAAATTGATATTGCGACTGATCATAGTCAGACCAACATTGCTACGACCCGTATTCGCACCGACAC | -0.0819 ± 0.0067 | -0.0636 ± 0.17 |
| ACATTTGTTGATACAACCATAAAATGATAATTACACCCATAAATTGATAATTATCACACCCATAAATTGATATTGCGAGAGATCATAGTCAGACCAACATTGCTACGACCCGTATTCGCACCGACAC | -0.286 ± 0.11 | -0.165 ± 0.12 |
| ACATTTGTTGATACAACCATAAAATGATAATTACACCCATAAATTGATAATTATCACACCCATAAATTGATATTGCTCTGATCATAGTCAGACCAACATTGCTACGACCCGTATTCGCACCGACACT | 0.126 ± 0.019 | -0.11 ± 0.21 |
| ACATTTGTTGATACAACCATAAAATGATAATTACACCCATAAATTGATAATTATCACACCCATAAATTGATATTGCTTATGATCATAGTCAGACCAACATTGCTACGACCCGTATTCGCACCGACAC | 0.0482 ± 0.094 | -0.462 ± 0.31 |
